# Variants at the floor of the assay were thinned out.
# B1: TPR 5TU (parent)
# chain: GGAUCUUCUCGAUCUAACAAAAAAGACAAAUCUGCCACAAAGCUUGAGAGCAUCUUCGGAUGCAGAGGCGGCAGCCUUCGGUGGCGCGAUAGCGCCAACGUUCUCAACUAUGACACGCAAAACGCGUGCUCCGUUGAAUGGAGUUUAUCAUG
# Variants of: B1
# Assay: polymerase ribozyme fitness, log enrichment relative to wild type (log ratio); higher = more active; in vitro selection for triplet polymerase activity
# Outline: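 Genotype fitness is the logarithm of its enrichment divided by wild-type enrichment, using inverse-variance-weighted averages of replicates. That logarithm is base 2. Enrichment was measured by Illumina sequencing of input and output libraries from one triplicate in vitro selection round, with frozen incubation at −7 °C, on PCR-built, transcribed mutant libraries of each subunit of a heterodimeric triplet polymerase ribozyme, retaining genotypes with ≥10 input reads and ≥1 read per output.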
row,Variant,polymerase ribozyme fitness (log ratio)
1,U9A A28U A66G C79G C93U,≤ -4.2
2,A23U G42U G58C G65U C75G G141U,≤ -4.2
3,A30U U56A C93U G141A,≤ -4.2
4,C10U A39C U77A G84A C95U A120U,≤ -4.2
5,U135A C149G,-4.09
6,A52G U77G G88C,≤ -4.2
7,G58C U134G A150U,-3.62
8,C27G A49C C51G G84U A98G A110G,≤ -4.2
9,G11A A26C U33G C129A,≤ -4.2
10,C14G G84A C85G A106G,≤ -4.2
11,A24G A52C A110U,≤ -4.2
12,G58U G71A A91U G92A G126A G133U,≤ -4.2
13,C14G G50U U56G G59C C108U,≤ -4.2
14,A19G A29U A49G C118U,≤ -4.2
15,C43U C51A G86U G126A A137C,≤ -4.2
16,G140A U146G,-3.51
17,G58U G141C A147U,-0.128
18,A24U C79A,-4.12
19,U13A A24U G34A G94C G126C,-3.18
20,A37U C96U,-1.52
21,C63A G84A A121C A142U U145A A150C,≤ -4.2
22,G83A C131U U139A G143A,≤ -4.2
23,U13A A41G C85A A106U,-4.16
24,U13A A49C G50C C51U G62C C76A G81A C85U G112A G124U,≤ -4.2

row,Variant,polymerase ribozyme fitness (log ratio)
1,C38A C131G U146C U151A,≤ -4.2
2,A91G C105U,-1.66
3,C14A G58C C93U,-2.75
4,U4A A52G C57A G126U,-1.17
5,C14G U55C C57A A66G G81A C85U,≤ -4.2
6,C57U C75G G81A C87G A120G,≤ -4.2
7,A137C C149U,-3.9
8,C85U U135C,-2.09
9,A41C A52C C114U,-3.97
10,G48A U53A C85U C118U,-2.36
11,A113C C116A,≤ -4.2
12,G48U U78A A91U U102G U144C,≤ -4.2
13,C14U C123G,-1.9
14,C105U A113U,-1.37
15,G65C C149G,≤ -4.2
16,A3G G42A A49C C63U C69G C85G A115C,≤ -4.2
17,C57U C76U C129G,-3.51
18,G25U G50U C76A C85U G86C G133C,≤ -4.2
19,A49C C76A C93U A113G G117A,≤ -4.2
20,G11A C123U A142U,-1.6
21,A30G A91U,-4.18
22,A60C C99A A113G U127G,≤ -4.2
23,A21C C54U,-0.0517
24,G42C U45A C79A G86A U104C A107C,≤ -4.2

row,Variant,polymerase ribozyme fitness (log ratio)
1,A73G G94U A106G,-0.312
2,G62C C93U,-3.83
3,A37U G81A U101C U111A U148G,≤ -4.2
4,A106G U109C,-3.91
5,A22G C85U C114A U139G,-3.14
6,G136U,-1.9
7,A3U C54U U56A C95U C123U A150C G152U,-3.58
8,C85U G86U C105U U135A A150C,≤ -4.2
9,C32A G84A A89G A97G U134A U148A,≤ -4.2
10,G62C C63U,-2.25
11,C27A C43G G92C U101C U127G U146A,≤ -4.2
12,A22G G59C G62C C63U C87G A89U A120C G143C,-3.94
13,U53A C57U,-1.2
14,U53A G65C C85G A137U G140C,≤ -4.2
15,G67A C72A A142U A150G,≤ -4.2
16,C43U U53A,≤ -4.2
17,G50C A52C G128A,≤ -4.2
18,C8G A16C A21G G48C C75A C87U A110U U144G,≤ -4.2
19,A17G A30U G83A U101C G128U,≤ -4.2
20,U61A A150G,-1.15
21,A3G A37C G80U,-3.88
22,U56A G143C,-2.27
23,G58C G67U A91U A107G C108U C116G C125U C129U,≤ -4.2
24,G50C G86U,-3.89

row,Variant,polymerase ribozyme fitness (log ratio)
1,A49G C85U,-0.982
2,A16C A30U G58U A66U A73G,≤ -4.2
3,U13G C18U C27U C95U,-3.43
4,C51U U53A C93A,-4.05
5,G74A C96G,-2.97
6,U4G C85U U134G U145G,-2.85
7,G50U U144A,-0.478
8,A39C G48C G59U A60U A66G G71A C96U U101G U151A,≤ -4.2
9,G86U A89G G92A,≤ -4.2
10,A23C C131G U134G,≤ -4.2
11,A17U A23U A28G U55A G84A,≤ -4.2
12,G88A U104G,≤ -4.2
13,C5A A24U C36U G86A C87A U90G C93A,≤ -4.2
14,A47U G83C A98U,-0.618
15,C76G C85U U139C,≤ -4.2
16,U4A G11U G50A C76U G84U G94C G126U,≤ -4.2
17,G46A U144G,0.469
18,G86U U144A,-3.12
19,G11A G86U C93G,-1.46
20,C85U C95A G117C,-0.698
21,C54A U77A C96G U127G,≤ -4.2
22,G50A C54G C116U,-2.17
23,A91G G141U,-1.92
24,U56A G58A A73G C96U U102G G117A U135A G141A,≤ -4.2

row,Variant,polymerase ribozyme fitness (log ratio)
1,A17G C93G C108G,-4.11
2,A23C A30C A52C C95U U144A,≤ -4.2
3,A12G C85A C118A,-0.759
4,C79G C87U U144G,-4.04
5,C54A U56A C118U,-2.14
6,A22C C51U U55G G67A G84C A115U G140C,≤ -4.2
7,C10U A30U U33G C51A A64C A91G C118U U145C,≤ -4.2
8,C57U A60U C95A C105U C125A,-2.41
9,A40U U82G G84U C93A C99A U109G G136U,≤ -4.2
10,A41G G65A,-0.45
11,U15G G25C A41C U55G C96A U139C G152U,≤ -4.2
12,A41G G74C C75U C76A A91C G92U U134A G141C,≤ -4.2
13,C72A C103A,≤ -4.2
14,G65A,-1.04
15,A21G A49C G84A G92U A97U A138G,≤ -4.2
16,G80A A91G A122U,-2.08
17,C35U A60G U102C C116A,-3.97
18,U9G G65A G81U C95U,≤ -4.2
19,C57U A64U G92A A138U U145G A150C,≤ -4.2
20,U15G A47G C54U C93G C96U U104C A150G,-3.79
21,A41U A47U C99G A107U,≤ -4.2
22,C96U C125G,-0.976
23,G11U A97G C103A U146A,-4.09
24,U31A C63U G84A C103A G112A A137U G152U,≤ -4.2

row,Variant,polymerase ribozyme fitness (log ratio)
1,A17C A120G,0.31
2,C54A G86A,-3.13
3,G59A G65C G68A U77C G133U,≤ -4.2
4,G86C A97U A98U,-3.05
5,A12G U13C C14A A41C A110U A119G G133A G140U U145G,≤ -4.2
6,A26U G42C G50U C93A A115U G117C,≤ -4.2
7,U44A C85U C87A G117U C149U,≤ -4.2
8,C38U U90C U109C C116A C125G U146G,≤ -4.2
9,U4A C36G C131A G136A,≤ -4.2
10,A17C C105U,1.03
11,A29G C57G G136U,≤ -4.2
12,A47C A89G A97U C131G,≤ -4.2
13,A19U G80U,-0.442
14,A20U A49G,-1.2
15,A40C C76U G86A A115C U135A A142G,-3.94
16,A52U C85G C123A G140A,≤ -4.2
17,C35U C105G G126A,-2.32
18,U56A C76U A113C,-2.48
19,C76A G94C,-0.703
20,A39G U53C U77G A113C C116A,≤ -4.2
21,C27G A39G A89C G92A U127A,-4.11
22,G59C A60C C99U A119C,≤ -4.2
23,C10G G48A G80A G84A A91C C114U C125U A142C,≤ -4.2
24,G42U U55A,-4.17

row,Variant,polymerase ribozyme fitness (log ratio)
1,A41C C76G C96U,≤ -4.2
2,U55C,0.0178
3,C18G C76A C85U,-0.589
4,A97U A150G,-1.61
5,U53A A91G U144G,-2.54
6,G94A C118A,-0.879
7,G133U G141U,-2.6
8,C36U U55A C93U U144G,-1.07
9,U6G A21U U45C A66U G141A U151A,≤ -4.2
10,C85A C108U,-3.66
11,A60C G83A C85U U101G,-3.16
12,A16C A21C A49C C54U C96U,-4.18
13,A21C C87U A89C A98G G112U,≤ -4.2
14,A47G U102A,-0.825
15,U45C A49C G70C G83C A137C U144C C149U,≤ -4.2
16,A28G U53A U144G,≤ -4.2
17,C14G U15G A30U A91G,≤ -4.2
18,C18G C96U A119U,-0.786
19,A26G C32A C35A G59U U90C C93G U146G,≤ -4.2
20,C85A A97U,-2.65
21,U4G A47C C51U G80A G84A G94U A97U,≤ -4.2
22,A20G A24U C35U G42C C79A C85G G88U A147G G152A,≤ -4.2
23,A41U A49G G58C G92A C95A C123A,≤ -4.2

# — the RNAGym collection of RNA variant scans (doi:10.1073/pnas.2313332121)
